According to patent publication US20260053903A1:

Target: dendritic cell-specific intercellular adhesion molecule-3-grabbing nonintegrin (DC-SIGN) (UniProt Q9NNX6)
Test: cell-based or functional assay

UniProt Q9NNX6, sequence (Q9NNX6 whole entry): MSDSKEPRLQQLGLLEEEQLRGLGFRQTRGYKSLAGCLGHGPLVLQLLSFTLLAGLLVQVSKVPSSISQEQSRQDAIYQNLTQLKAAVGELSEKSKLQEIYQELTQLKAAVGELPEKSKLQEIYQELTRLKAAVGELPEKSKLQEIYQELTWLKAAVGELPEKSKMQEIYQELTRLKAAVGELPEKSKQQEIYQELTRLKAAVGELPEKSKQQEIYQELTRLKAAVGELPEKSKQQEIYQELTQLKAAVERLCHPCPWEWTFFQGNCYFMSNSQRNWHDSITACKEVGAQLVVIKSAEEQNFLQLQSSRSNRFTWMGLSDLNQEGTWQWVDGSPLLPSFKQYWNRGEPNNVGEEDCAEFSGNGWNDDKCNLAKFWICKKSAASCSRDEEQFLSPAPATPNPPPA

“Man-OvaI/II (combination of particles PP7-Man900-OvaI100 and PP7-Man900-OvaII100) (from UniProt P03630 2-127)” gave an uptake of fluorophore-labeled VLPs by moDCs over 30 min (flow cytometry) (fold against PE-OvaI/II) of 5.
